The target of the test is T1, human ADP-ribosyl cyclase 2 (BST1; CD157) (human, UniProt Q10588 33-293).
T1 construct: Endogenous BST1 on human cells (A549, H226, U937, AML blasts); also called Bone marrow stromal antigen 1; cell-surface human BST1
T1 sequence: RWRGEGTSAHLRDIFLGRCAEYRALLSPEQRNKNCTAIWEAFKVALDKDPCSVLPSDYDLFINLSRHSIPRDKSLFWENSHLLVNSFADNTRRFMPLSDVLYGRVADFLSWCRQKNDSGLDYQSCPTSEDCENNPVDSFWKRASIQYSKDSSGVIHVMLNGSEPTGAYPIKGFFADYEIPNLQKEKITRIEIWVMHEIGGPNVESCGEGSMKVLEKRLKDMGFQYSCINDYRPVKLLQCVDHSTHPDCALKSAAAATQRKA
The test is described as follows: flow cytometry on A549 and H226 cells. The method, then: The specificity of antibodies against the BST1 selected in Example 2 was tested by flow cytometry. To test the ability of the antibodies to bind to the cell surface BST1 protein, the antibodies were incubated with the BST1-expressing cells, A549 and H226, from human lung adenocarcinoma and human lung squamous carcinoma, respectively. Cells were washed in FACS buffer (DPBS, 2% FBS), centrifuged and resuspended in […] of the diluted primary BST1 antibody (also diluted in FACS buffer). The antibody-A549 complex was incubated on ice for 60 min and then washed twice with FACS buffer as described above. The cell-antibody pellet was resuspended in 100 μl of the diluted secondary antibody (also diluted in FACS buffer) and incubated on ice for 60 min on ice. The pellet was washed as before and resuspended in […] FACS buffer. The samples were loaded onto the BD FACScanto II flow sytometer and the data analyzed using the BD FACSdiva software.
In general terms: Flow cytometry measures light scatter and fluorescence of single cells or particles in a stream.

These results are taken from patent US20130273068A1 (published 2013).

B1: BST1_A3 (Fab, V domains shown)
VH: QVQLQQSRAELVMPGASVKMSCKTSGYTFSDYWVHWVRQRPGQGLEWIGAIDGSDTFNDYSQKFKGRATLTVDESSSTVYMQLSSLTSEDSAVYYCARGGLLQYWGQGTTLTVSS
VL: DIQLTQSPASLSASVGETVTITCRASENIYSYLAWYQQKQGKSPQLLVYNTKTLGEGVPSRFSGSGSGTQFSLKINSLQPEDFGSYYCQHHYGTPFTFGSGTKLEIKR
On to B1, for which the binding result is on record as “binds”.
